Experimental data as given in PMC2680917 (Cell, 2009).
Blank lines part the entries; values can stand above or below the molecule they belong to.

What was measured:
Homer1b (rat) = test: AUC
Shank1CΔPEST = test: co-sedimentation
Homer1bΔ329 (rat) = test: AUC
[1] = target: Homer1b I332R/I337E (rat); test: AUC
crystal structure = target: the molecule itself; test: crystal structure

- stoichiometry N (Homer1b (rat)): 4.2 mer
- percent precipitated (Shank1CΔPEST): 50%
- stoichiometry N (Homer:Shank molar ratio) (Shank1CΔPEST): 1
Molecule: Homer1b (natural protein)

- stoichiometry N (Homer1bΔ329 (rat)): 2.1 mer
Molecule: Homer1bΔ329 (domain or fragment)

- stoichiometry N [1]: 2 mer
Molecule: Homer1b I332R/I337E (natural protein)

B1: Homer3CC2 (287 – carboxy-terminus of Homer3a) (domain or fragment, human, UniProt Q9NSC5 287-361, looked up)
chain: AAEREETQQKVQDLETRNAELEHQLRAMERSLEEARAERERARAEVGRAAQLLDVSLFELSELREGLARLAEAAP
- binding result (crystal structure): binds
